# B1: native 3,6-diketocamphane 1,6-monooxygenase, oxygenating component (enzyme, Pseudomonas putida NCIMB 10007, UniProt D7UER1 1-378, looked up)
# chain: MAMETGLIFHPYMRPGRSARQTFDWGIKSAVQADSVGIDSMMISEHASQIWENIPNPELLIAAAALQTKNIKFAPMAHLLPHQHPAKLATMIGWLSQILEGRYFLGIGAGAYPQASYMHGIRNAGQSNTATGGEETKNLNDMVRESLFIMEKIWKREPFFHEGKYWDAGYPEELEGEEGDEQHKLADFSPWGGKAPEIAVTGFSYNSPSMRLAGERNFKPVSIFSGLDALKRHWEVYSEAAIEAGHTPDRSRHAVSHTVFCADTDKEAKRLVMEGPIGYCFERYLIPIWRRFGMMDGYAKDAGIDPVDADLEFLVDNVFLVGSPDTVTEKINALFEATGGWGTLQVEAHDYYDDPAPWFQSLELISKEVAPKILLPKR
# notes: 3,6-diketocamphane 1,6-monooxygenase (3,6-DKMO; EC 1.14.13.-), oxygenating component, encoded on the CAM plasmid of Pseudomonas putida NCIMB 10007; monomer 42.3 kDa; residues up to 378 are numbered in the model (A1, A128-133, A176-180, A377-378, B1, B127-135, B176-179 not modelled); also called 3,6-DKMO; native 3,6-DKMO
# B2: recombinant (overexpressed) 3,6-diketocamphane 1,6-monooxygenase, oxygenating component, N-terminally hexahistidine-tagged (enzyme, Pseudomonas putida)
# chain: B1 chain
# notes: 3,6-diketocamphane 1,6-monooxygenase (3,6-DKMO), oxygenating component, the 3,6-DKMO gene of the CAM plasmid of Pseudomonas putida in pET-28b; residues A126-135, A176-179, A377-378, B125-135, B176-179 not modelled in the FMN complex; Crystallised with 20 mM FMN, 5 mM NADH and 5 mM (-)-camphor; only FMN (occupancy 0.6) seen; also called overexpressed 3,6-DKMO; recombinant 3,6-DKMO; source: E. coli …
# Experiments:
# [1] = target: the molecule itself; test: crystal structure; native apo enzyme; crystals from 50 mM PIPES pH 6.5, 50% ammonium sulfate, room temperature; P212121, two subunits in the asymmetric unit; 1.9 A
# [2] = target: the molecule itself; test: crystal structure; overexpressed enzyme co-crystallised with 20 mM FMN, 5 mM NADH, 5 mM (-)-camphor; 100 mM HEPES pH 7.0, 20% PEG 3350, 18 C; P212121, one dimer in the asymmetric unit; 1.9 A
Protein,stoichiometry N [1],stoichiometry N [2]
B1,2,
B2,,2

# — publication PMC4631483, “The oxygenating constituent of 3,6-diketocamphane monooxygenase from the CAM plasmid of Pseudomonas putida: the first crystal structure of a type II Baeyer–Villiger monooxygenase” (Acta Crystallographica Section D: Biological Crystallography, 2015)
